Assay results from patent publication US20210380703A1.

target: human Fc (human); test: ELISA, negative control

optical density [OD]	Binder
0.483	368_A06 (antibody, V domains shown) VH: EVQLLESGGGLVQPGGSLRLSCAASGFTFDSYSMHWVRQAPGKGLEWVAGINYNSGYKGYADSVKGRFTISRDNSKNTLYLQMNSLRAEDTAVYYCARAANWHDTHLDYWGQGTLVTVSS VL: DIQMTQSPSSLSASVGDRVTITCRASQSILSYVNWYQQKPGKAPKLLIYAATSRHSGVPSRFSGSGSGTDFTLTISSLQPEDFATYYCQQSYNSPLTFGGGTKVEIK
0.329	374_D10 (antibody, V domains shown) VH: EVQLLESGGGLVQPGGSLRLSCAASGFTFSSYGMHWVRQAPGKGLEWVASINYNGGYTSYADSVKGRFTISRDNSKNTLYLQMNSLRAEDTAVYYCARGANWHDTHLDYWGQGTLVTVSS VL: DIQMTQSPSSLSASVGDRVTITCRASQSILTYVNWYQQKPGKAPKLLIYAATSRASGVPSRFSGSGSGTDFTLTISSLQPEDFATYYCQQSYDNPLTFGGGTKVEIK
0.177	374_E12 (antibody, V domains shown) VH: EVQLLESGGGLVQPGGSLRLSCAASGFTFSSYSMNWVRQAPGKGLEWVSGINYNGGYKSYADSVKGRFTISRDNSKNTLYLQMNSLRAEDTAVYYCARGANWHDTALDYWGQGTLVTVSS VL: DIQMTQSPSSLSASVGDRVTITCRASQSILSYLNWYQQKPGKAPKLVIYAATSRASGVPSRFSGSGSGTDFTLTISSLQPEDFATYYCQQSYDNPLTFGGGTKVEIK
0.171	374_D05 (antibody, V domains shown) VH: EVQLLESGGGLVQPGGSLRLSCAASGFTFDSYSMNWVRQAPGKGLEWVSGINYNSGYTGYADSVKGRFTISRDNSKNTLYLQMNSLRAEDTAVYYCARGANWHDTHLDYWGQGTLVTVSS VL: DIQMTQSPSSLSASVGDRVTITCRASQSILTYLNWYQQKPGKAPKLLIYAATSRASGVPSRFSGSGSGTDFTLTISSLQPEDFATYYCQQSYDTPLTFGGGTKVEIK
0.216	374_D03 (antibody, V domains shown) VH: EVQLLESGGGLVQPGGSLRLSCAASGFTFDSYSMNWVRQAPGKGLEWVAGINYNGGYKSYADSVKGRFTISRDNSKNTLYLQMNSLRAEDTAVYYCARGANWHDTHLDYWGQGTLVTVSS VL: DIQMTQSPSSLSASVGDRVTITCRASQSIVTYLNWYQQKPGKAPKLLIYAATSRASGVPSRFSGSGSGTDFTLTISSLQPEDFATYYCQQSYDTPLTFGGGTKVEIK
0.165	374_E10 (antibody, V domains shown) VH: EVQLLESGGGLVQPGGSLRLSCAASGFTFSSYSMNWVRQAPGKGLEWVSGINYNGGYKSYADSVKGRFTISRDNSKNTLYLQMNSLRAEDTAVYYCARGANWHDTALDYWGQGTLVTVSS VL: DIQMTQSPSSLSASVGDRVTITCRASQSILSYLNWYQQKPGKAPKLLIYAATSRHSGVPSRFSGSGSGTDFTLTISSLQPEDFATYYCQQSYDSPLTFGGGTKVEIK
0.167	374_C01 (antibody, V domains shown) VH: EVQLLESGGGLVQPGGSLRLSCAASGFTFDSYGMNWVRQAPGKGLEWVSGINYNSGYKSYADSVKGRFTISRDNSKNTLYLQMNSLRAEDTAVYYCARGANWHDTALDYWGQGTLVTVSS VL: DIQMTQSPSSLSASVGDRVTITCRASQSILTYLNWYQQKPGKAPKLLIYAATSRASGVPSRFSGSGSGTDFTLTISSLQPEDFATYYCQQSYETPLTFGGGTKVEIK
0.425	368_A12 (antibody, V domains shown) VH: EVQLLESGGGLVQPGGSLRLSCAASGFTFDSYSMHWVRQAPGKGLEWVSSINYNSGYKGYADSVKGRFTISRDNSKNTLYLQMNSLRAEDTAVYYCARAANWHDTALDYWGQGTLVTVSS VL: DIQMTQSPSSLSASVGDRVTITCRASQSILTYLNWYQQKPGKAPKLVIYAATSRASGVPSRFSGSGSGTDFTLTISSLQPEDFATYYCQQSYDSPLTFGGGTKVEIK
0.166	374_B03 (antibody, V domains shown) VH: EVQLLESGGGLVQPGGSLRLSCAASGFTFDSYSMNWVRQAPGKGLEWVSGINYNGGYTSYADSVKGRFTISRDNSKNTLYLQMNSLRAEDTAVYYCARGANWHDTALDYWGQGTLVTVSS VL: DIQMTQSPSSLSASVGDRVTITCRASQSILTYLNWYQQKPGKAPKLVIYAATSRASGVPSRFSGSGSGTDFTLTISSLQPEDFATYYCQQSYDSPLTFGGGTKVEIK
0.176	374_D07 (antibody, V domains shown) VH: EVQLLESGGGLVQPGGSLRLSCAASGFTFDSYSMNWVRQAPGKGLEWVSGINYNSGYKSYADSVKGRFTISRDNSKNTLYLQMNSLRAEDTAVYYCARGANWHDTALDYWGQGTLVTVSS VL: DIQMTQSPSSLSASVGDRVTITCRASQSIVSYLNWYQQKPGKAPKLVIYAATSLASGVPSRFSGSGSGTDFTLTISSLQPEDFATYYCQQSYNSPLTFGGGTKVEIK
0.188	374_B08 (antibody, V domains shown) VH: EVQLLESGGGLVQPGGSLRLSCAASGFTFDSYSMNWVRQAPGKGLEWVAGINYNGGYTSYADSVKGRFTISRDNSKNTLYLQMNSLRAEDTAVYYCARGANWHDTALDYWGQGTLVTVSS VL: DIQMTQSPSSLSASVGDRVTITCRASQSIVSYVNWYQQKPGKAPKLLIYAATSRHSGVPSRFSGSGSGTDFTLTISSLQPEDFATYYCQQSYELPLTFGGGTKVEIK
0.168	374_B05 (antibody, V domains shown) VH: EVQLLESGGGLVQPGGSLRLSCAASGFTFDSYSMNWVRQAPGKGLEWVSGINYNSGYTSYADSVKGRFTISRDNSKNTLYLQMNSLRAEDTAVYYCARGANWHDTALDYWGQGTLVTVSS VL: DIQMTQSPSSLSASVGDRVTITCRASQSIVSYLNWYQQKPGKAPKLLIYAATSRHSGVPSRFSGSGSGTDFTLTISSLQPEDFATYYCQQSYESPLTFGGGTKVEIK
0.17	374_B10 (antibody, V domains shown) VH: EVQLLESGGGLVQPGGSLRLSCAASGFTFSSYSMNWVRQAPGKGLEWVSSINYNSGYTSYADSVKGRFTISRDNSKNTLYLQMNSLRAEDTAVYYCARGANWHDTHLDYWGQGTLVTVSS VL: DIQMTQSPSSLSASVGDRVTITCRASQSILTYVNWYQQKPGKAPKLVIYAATSLASGVPSRFSGSGSGTDFTLTISSLQPEDFATYYCQQSYDTPLTFGGGTKVEIK
0.308	374_C12 (antibody, V domains shown) VH: EVQLLESGGGLVQPGGSLRLSCAASGFTFSSYSMNWVRQAPGKGLEWVAGINYNGGYKSYADSVKGRFTISRDNSKNTLYLQMNSLRAEDTAVYYCARGANWHDTALDYWGQGTLVTVSS VL: DIQMTQSPSSLSASVGDRVTITCRASQSILTYLNWYQQKPGKAPKLVIYAATSRASGVPSRFSGSGSGTDFTLTISSLQPEDFATYYCQQSDNSPLTFGGGTKVEIK
0.172	374_D06 (antibody, V domains shown) VH: EVQLLESGGGLVQPGGSLRLSCAASGFTFSSYSMNWVRQAPGKGLEWVSGINYNGGYTSYADSVKGRFTISRDNSKNTLYLQMNSLRAEDTAVYYCARGANWHDTALDYWGQGTLVTVSS VL: DIQMTQSPSSLSASVGDRVTITCRASQSILSYVNWYQQKPGKAPKLVIYAATSRASGVPSRFSGSGSGTDFTLTISSLQPEDFATYYCQQSYDSPLTFGGGTKVEIK
0.154	374_C09 (antibody, V domains shown) VH: EVQLLESGGGLVQPGGSLRLSCAASGFTFDSYGMNWVRQAPGKGLEWVSSINYNGGYKGYADSVKGRFTISRDNSKNTLYLQMNSLRAEDTAVYYCARGANWHDTHLDYWGQGTLVTVSS VL: DIQMTQSPSSLSASVGDRVTITCRASQSIVSYLNWYQQKPGKAPKLVIYAATSRASGVPSRFSGSGSGTDFTLTISSLQPEDFATYYCQQSYELPLTFGGGTKVEIK
